Assay results from publication PMC2696799 (European journal of immunology, 2009).

Key:
[1] = biological target: CD200R ECD (Mus musculus) (UniProt Q9ES57); conditions: cited from earlier work
[2] = biological target: CD200RLa ECD (Mus musculus) (UniProt Q6XJV4); conditions: cited from earlier work
CD47 ECD (Homo sapiens) = CD47 ECD (Homo sapiens) (UniProt Q08722); conditions: cited from earlier work
[3] = biological target: CD200R ECD (Homo sapiens) (UniProt Q8TD46); conditions: cited from earlier work
CD58 ECD (Homo sapiens) = CD58 ECD (Homo sapiens) (UniProt P19256); conditions: cited from earlier work
[4] = biological target: T1, Acid-soluble human collagen type I (from human placenta) (human, UniProt P02452 162-1218; P08123 80-1119); assay: SPR
[5] = biological target: (GPO)10 triple-helical peptide, GCO(GPO)10GCOG-NH2; assay: SPR
[6] = biological target: T2, mCD200RLa/rCD4d3+4, immobilised (mouse, UniProt Q6XJV4 26-241, biotin); assay: SPR
T2 sequence (looked up): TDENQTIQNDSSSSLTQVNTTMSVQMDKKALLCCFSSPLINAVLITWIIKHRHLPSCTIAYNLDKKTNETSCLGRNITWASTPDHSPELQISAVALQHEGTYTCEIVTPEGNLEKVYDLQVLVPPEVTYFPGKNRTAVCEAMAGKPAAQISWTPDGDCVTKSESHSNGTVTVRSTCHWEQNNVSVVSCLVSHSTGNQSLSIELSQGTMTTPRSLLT

mCD200R, immobilised = biological target: T3, mCD200R, immobilised (mouse, UniProt Q9ES57 26-238); assay: SPR
T3 sequence (looked up): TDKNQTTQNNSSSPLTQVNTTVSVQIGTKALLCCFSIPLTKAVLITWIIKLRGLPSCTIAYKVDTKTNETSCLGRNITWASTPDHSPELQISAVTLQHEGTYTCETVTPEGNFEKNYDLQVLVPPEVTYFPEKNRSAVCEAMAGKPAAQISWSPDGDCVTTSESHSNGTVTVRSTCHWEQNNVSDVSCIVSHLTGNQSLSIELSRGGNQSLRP

SPR = biological target: the molecule itself; assay: SPR
[7] = biological target: T1, Acid-soluble human collagen type I …; assay: SPR; remark: listed apart in the source

T1 sequence (P02452 162-1218, chain 1 of 2): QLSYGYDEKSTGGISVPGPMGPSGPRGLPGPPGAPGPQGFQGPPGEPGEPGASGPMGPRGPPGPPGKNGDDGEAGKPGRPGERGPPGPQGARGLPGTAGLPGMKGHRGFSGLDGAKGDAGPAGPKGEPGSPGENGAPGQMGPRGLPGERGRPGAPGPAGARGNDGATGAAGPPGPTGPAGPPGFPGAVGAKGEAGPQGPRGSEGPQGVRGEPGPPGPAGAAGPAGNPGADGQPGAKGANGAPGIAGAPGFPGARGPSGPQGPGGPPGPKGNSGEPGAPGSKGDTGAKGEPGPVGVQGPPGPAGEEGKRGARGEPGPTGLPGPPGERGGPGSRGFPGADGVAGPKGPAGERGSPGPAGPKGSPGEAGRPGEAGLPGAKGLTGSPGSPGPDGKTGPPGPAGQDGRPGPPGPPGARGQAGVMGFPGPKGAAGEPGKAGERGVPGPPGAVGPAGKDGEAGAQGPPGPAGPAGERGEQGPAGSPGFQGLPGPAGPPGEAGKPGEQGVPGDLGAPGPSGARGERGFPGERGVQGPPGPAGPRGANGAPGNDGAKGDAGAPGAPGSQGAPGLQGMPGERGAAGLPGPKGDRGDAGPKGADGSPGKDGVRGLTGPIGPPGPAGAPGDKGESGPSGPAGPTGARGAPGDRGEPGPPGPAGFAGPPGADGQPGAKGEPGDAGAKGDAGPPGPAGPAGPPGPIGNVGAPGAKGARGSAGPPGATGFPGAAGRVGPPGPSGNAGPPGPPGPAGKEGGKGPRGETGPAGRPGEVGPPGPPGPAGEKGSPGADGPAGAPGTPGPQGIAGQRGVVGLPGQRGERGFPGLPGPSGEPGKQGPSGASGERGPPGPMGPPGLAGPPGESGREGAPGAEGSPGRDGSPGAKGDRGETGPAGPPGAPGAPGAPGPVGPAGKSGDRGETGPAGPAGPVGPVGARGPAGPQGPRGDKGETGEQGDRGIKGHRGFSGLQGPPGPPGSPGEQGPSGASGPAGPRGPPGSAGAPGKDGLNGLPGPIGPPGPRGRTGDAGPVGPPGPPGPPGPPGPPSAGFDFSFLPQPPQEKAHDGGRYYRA
T1 sequence (P08123 80-1119, chain 2 of 2): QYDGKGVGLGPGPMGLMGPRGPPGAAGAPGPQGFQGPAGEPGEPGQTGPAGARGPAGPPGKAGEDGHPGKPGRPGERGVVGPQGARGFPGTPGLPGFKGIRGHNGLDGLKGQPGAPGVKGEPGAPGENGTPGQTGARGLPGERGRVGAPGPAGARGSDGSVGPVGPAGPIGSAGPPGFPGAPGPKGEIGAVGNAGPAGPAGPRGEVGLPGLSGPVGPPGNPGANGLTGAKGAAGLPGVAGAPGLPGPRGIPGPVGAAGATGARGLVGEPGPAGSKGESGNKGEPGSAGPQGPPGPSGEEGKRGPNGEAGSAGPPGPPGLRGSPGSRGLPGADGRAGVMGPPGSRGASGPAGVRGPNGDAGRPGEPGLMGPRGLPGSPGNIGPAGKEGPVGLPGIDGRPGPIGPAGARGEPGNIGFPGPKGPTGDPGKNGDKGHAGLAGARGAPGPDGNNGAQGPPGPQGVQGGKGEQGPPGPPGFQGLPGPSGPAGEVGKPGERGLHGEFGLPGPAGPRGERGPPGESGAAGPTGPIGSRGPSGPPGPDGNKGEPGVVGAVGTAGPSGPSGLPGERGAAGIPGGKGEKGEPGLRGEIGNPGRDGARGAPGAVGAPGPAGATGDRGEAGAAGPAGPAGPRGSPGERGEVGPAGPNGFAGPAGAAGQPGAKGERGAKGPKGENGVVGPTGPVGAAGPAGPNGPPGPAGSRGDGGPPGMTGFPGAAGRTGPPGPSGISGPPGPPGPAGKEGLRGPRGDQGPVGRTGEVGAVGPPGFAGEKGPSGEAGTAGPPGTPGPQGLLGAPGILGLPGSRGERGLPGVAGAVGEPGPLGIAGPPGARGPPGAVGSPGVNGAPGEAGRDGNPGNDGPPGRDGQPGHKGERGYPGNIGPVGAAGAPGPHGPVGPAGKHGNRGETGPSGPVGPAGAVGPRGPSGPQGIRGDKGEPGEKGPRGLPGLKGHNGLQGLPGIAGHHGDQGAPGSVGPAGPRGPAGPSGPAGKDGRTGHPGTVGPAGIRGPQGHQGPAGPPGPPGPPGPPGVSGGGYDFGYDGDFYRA
Sequence of CD47 ECD (Homo sapiens) (Q08722 19-323): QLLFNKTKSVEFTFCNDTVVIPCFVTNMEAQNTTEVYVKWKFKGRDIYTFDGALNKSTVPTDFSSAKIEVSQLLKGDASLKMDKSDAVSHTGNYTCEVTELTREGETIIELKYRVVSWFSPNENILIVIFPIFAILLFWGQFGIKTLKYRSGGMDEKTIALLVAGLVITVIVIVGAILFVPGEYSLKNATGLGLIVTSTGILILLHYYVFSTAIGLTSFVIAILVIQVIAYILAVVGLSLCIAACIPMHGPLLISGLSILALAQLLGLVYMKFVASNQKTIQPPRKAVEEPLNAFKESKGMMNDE
Sequence of CD58 ECD (Homo sapiens) (P19256 29-215): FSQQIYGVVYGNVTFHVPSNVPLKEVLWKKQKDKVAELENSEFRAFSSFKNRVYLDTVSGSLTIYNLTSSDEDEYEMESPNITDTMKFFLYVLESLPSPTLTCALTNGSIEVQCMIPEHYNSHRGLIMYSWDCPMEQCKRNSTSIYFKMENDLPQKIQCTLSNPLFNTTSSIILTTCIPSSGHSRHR
Sequence of CD200R ECD (Homo sapiens) (Q8TD46 25-265): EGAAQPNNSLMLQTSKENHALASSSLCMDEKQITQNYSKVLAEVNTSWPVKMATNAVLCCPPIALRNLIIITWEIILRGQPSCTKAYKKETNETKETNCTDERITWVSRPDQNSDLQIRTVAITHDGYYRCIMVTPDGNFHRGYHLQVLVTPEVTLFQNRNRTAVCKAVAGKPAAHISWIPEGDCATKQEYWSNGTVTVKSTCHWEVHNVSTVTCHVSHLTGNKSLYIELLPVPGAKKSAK

## CD200 ECD (from UniProt O54901)
[1]
  Kd: 4 µM
[2]
  Kd: > 500 µM

## SIRPα ECD (from UniProt P78324)
CD47 ECD (Homo sapiens)
  Kd: 2 µM

## CD200 ECD (from UniProt P41217)
[3]
  Kd: 2 µM

## CD2 ECD (from UniProt P06729)
CD58 ECD (Homo sapiens)
  Kd: 10 µM

B1: mLilrb4/rCD4d3+4, soluble monomeric (domain or fragment, mouse, UniProt Q64281 24-238, looked up)
chain: GHLPKPIIWAEPGSVIAAYTSVITWCQGSWEAQYYHLYKEKSVNPWDTQVPLETRNKAKFNIPSMTTSYAGIYKCYYESAAGFSEHSDAMELVMTGAYENPSLSVYPSSNVTSGVSISFSCSSSIVFGRFILIQEGKHGLSWTLDSQHQANQPSYATFVLDAVTPNHNGTFRCYGYFRNEPQVWSKPSNSLDLMISETKDQSSTPTEDGLETYQK
[4]
  Kd: 39 µM
[5]
  Kd: 33 µM

B2: mLAIR-1/rCD4d3+4, soluble monomeric (domain or fragment, mouse, UniProt Q8BG84 22-144, looked up)
chain: QEGSLPDITIFPNSSLMISQGTFVTVVCSYSDKHDLYNMVRLEKDGSTFMEKSTEPYKTEDEFEIGPVNETITGHYSCIYSKGITWSERSKTLELKVIKENVIQTPAPGPTSDTSWLKTYSIY
[4]
  Kd: 18 µM
[5]
  Kd: 10 µM

B3: mCD200/rCD4d3+4 coupled beads (domain or fragment, mouse, UniProt O54901 31-232, looked up)
chain: QVEVVTQDERKALHTTASLRCSLKTSQEPLIVTWQKKKAVSPENMVTYSKTHGVVIQPAYKDRINVTELGLWNSSITFWNTTLEDEGCYMCLFNTFGSQKVSGTACLTLYVQPIVHLHYNYFEDHLNITCSATARPAPAISWKGTGTGIENSTESHFHSNGTTSVTSILRVKDPKTQVGKEVICQVLYLGNVIDYKQSLDKG
modifications: biotin on the tag that can be biotinylated
[6]
  response: > 3000 RU
mCD200R, immobilised
  response: > 3000 RU

B4: mLilrb4/rCD4d3+4, biotinylated (on beads or on the chip) (domain or fragment, mouse, UniProt Q64281 24-238, looked up)
chain: GHLPKPIIWAEPGSVIAAYTSVITWCQGSWEAQYYHLYKEKSVNPWDTQVPLETRNKAKFNIPSMTTSYAGIYKCYYESAAGFSEHSDAMELVMTGAYENPSLSVYPSSNVTSGVSISFSCSSSIVFGRFILIQEGKHGLSWTLDSQHQANQPSYATFVLDAVTPNHNGTFRCYGYFRNEPQVWSKPSNSLDLMISETKDQSSTPTEDGLETYQK
modifications: biotin (biotin ligase BirA) on the sequence near the C terminus
SPR
  response: 1750 RU

B5: hLAIR-1/rCD4d3+4, biotinylated (on beads or on the chip) (domain or fragment, human, UniProt Q6GTX8 22-165, looked up)
chain: QEEDLPRPSISAEPGTVIPLGSHVTFVCRGPVGVQTFRLERDSRSTYNDTEDVSQASPSESEARFRIDSVREGNAGLYRCIYYKPPKWSEQSDYLELLVKESSGGPDSPDTEPGSSAGPTQRPSDNSHNEHAPASQGLKAEHLY
modifications: biotin (biotin ligase BirA) on the sequence near the C terminus
[7]
  response: 2700 RU
